The values that follow come from US20070060522A1.

Holding throughout (assay): cell-based or functional assay
The target of assay [1] is αMβ2 (Mac-1; CD11b/CD18) on human peripheral blood monocytes (human) (UniProt P11215).
Assay [2] addresses CD54 (ICAM-1) on A375 human melanoma cells (human) (UniProt P05362).
Assay [3] deals with αLβ2 (LFA-1; CD11a/CD18) on human peripheral blood leukocytes (human) (UniProt P20701).

Sequence of CD54 (ICAM-1) on A375 human melanoma cells (human) (P05362 28-532): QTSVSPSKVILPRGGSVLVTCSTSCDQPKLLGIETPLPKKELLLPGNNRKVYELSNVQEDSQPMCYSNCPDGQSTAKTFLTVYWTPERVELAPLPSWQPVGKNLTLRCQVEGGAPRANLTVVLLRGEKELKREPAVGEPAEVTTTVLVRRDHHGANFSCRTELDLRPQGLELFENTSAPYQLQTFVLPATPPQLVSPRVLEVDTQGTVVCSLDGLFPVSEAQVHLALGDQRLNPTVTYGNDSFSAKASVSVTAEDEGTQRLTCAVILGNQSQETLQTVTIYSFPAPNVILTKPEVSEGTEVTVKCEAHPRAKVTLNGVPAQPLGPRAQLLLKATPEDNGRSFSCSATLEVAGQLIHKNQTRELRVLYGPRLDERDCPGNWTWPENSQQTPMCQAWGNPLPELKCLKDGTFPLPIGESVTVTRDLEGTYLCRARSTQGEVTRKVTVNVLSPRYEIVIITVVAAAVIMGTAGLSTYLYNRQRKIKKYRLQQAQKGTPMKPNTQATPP

As to “soluble fibrin (sFn) (from UniProt P02671 36-629; P02675 45-491; P02679 27-453) (ligand)”, in assay [1], the adherence of sFn treated monocytes to untreated A375 cells, static microplate assay (untreated control 32.9+1.3%) was 38.8% and the monocyte adherence to sFn pre-treated A375 cells, static microplate assay (untreated control 32.9+1.3%) came out at 68.5%. For the same substance, the monocyte adherence when monocytes and A375 cells were both pre-treated with sFn, static microplate assay (untreated control 32.9+1.3%) in assay [2] came out at 15.9%.
“blocking monoclonal anti-αMβ2 antibody (clone ICRF44)”: in assay [1], the inhibition of monocyte adherence to sFn pretreated tumor cells amounted to 80% and the inhibition of monocyte adherence to untreated A375 cells is 22.5%.
With “murine anti-human monoclonal blocking antibody against CD54 (clone 84H10)”, in assay [2], the inhibition of adherence of sFn pretreated monocytes to A375 cells stood at 86% and the inhibition of adherence of untreated monocytes to A375 cells stood at 53%.
Regarding “murine anti-human monoclonal blocking antibody against αLβ2 (clone 25.3)”, in assay [3], the inhibition of monocyte adherence to sFn pre-treated A375 cells is 23% and the inhibition of monocyte adherence to untreated A375 cells stood at 80%.
